{
  "source": "patent US20230287369A1",
  "about": "“A NEW, NON-SPECIFIC THERMOLABILE NUCLEASE ACTIVE AT LOW TEMPERATURE, IN WIDE PH RANGE AND HIGH CONCENTRATION IN SALTS” (Blirt S.A., priority 2019, published 2023)",
  "molecules": {"B1": {"name": "PPR nuclease: non-specific nuclease that is the subject matter of the invention of SEQ ID NO: 2; thermolabile, recombinant, produced in E. coli (protein)", "chain": "MKYLLPTAAAGLLLLAAQPAMAASMEHHHHHHGSENLYFQSAPPSSFSKAKRLAVEIYQDHPTSFYCGCAITWQGKKGLPDLASCGYEVRKQEKRANRIEWEHVVPAENFGRAFVEWREGHPQCVNSKGKAYKGRSCATKMNPTYRSMQADLHNLTPAVGEVNGDRSNYAFLPWNGNNGAFYGQCDMKIDFKNRRADPPEQSRGAIARTYLYMNQEYKMALSSQQRQLMEAWNRQYPISTWECERDRRIANIQDNHNSFVLQACKKAGY"}},
  "type_in_all_cases": "biochemical",
  "key": {"pUC19 plasmid DNA [1]": {"system": "pUC19 plasmid DNA", "assay": "Thermal inactivation of PPR enzymatic activity in the presence of DTT, plasmid DNA degradation on agarose gel", "conditions": "incubation for 15 minutes in the presence of 1-5 mM DTT", "procedure": "FIG. 5—showing PPR inactivation in various temperature conditions in the presence of 5 mM DTT. Complete PPR inactivation is obtained at 52° C.\n(§1) In order to determine PPR nuclease nucleolytic activity serial dilutions of the enzyme are incubated in a reaction buffer containing 20 mM Tris-HCl (pH 8.0), 20 mM MgCb and 1 pg pUC19 plasmid DNA of 20 m ? volume for 10 min. The reaction is stopped by adding 5 m ? 25 mM DTT solution to a final concentration of 5 mM and the sample is heated to 55° C. for 10 min. As a control, 1 pg of pUC19 plasmid DNA is incubated without the addition of nuclease. Subsequently, the samples are loaded onto a 1% agarose gel and DNA separation is performed in gel at 130 voltage for 40 min. The remaining, nondegraded DNA in gel is stained with ethidium bromide and documented by taking a photography of the gel. 1 U activity is determined as the enzyme quantity essential for total degradation of 1 pg of pUC19 plasmid DNA in 10 min. at 37° C.\nTo determine the parameters of PPR nuclease inactivation series of 0.2 ml test probes for PCR are prepared containing 100 U PPR in a 50 m ? reaction buffer containing 5 mM DTT, as described in Example 4A, excluding pUCIO plasmid DNA. Afterwards, the probes are incubated for 15 minutes at relevant temperatures and then for 5 minutes on ice. […] The degree of plasmid DNA degradation in the trials is analyzed on an agarose gel."}, "[2]": {"system": "herring sperm genomic DNA", "assay": "Nucleolytic activity of PPR, HL-SAN, Benzonase nucleases in buffers of varied salt concentration and pH", "procedure": "FIG. 6—showing the comparison of nucleolytic activity values of PPR, HL-SAN and Benzonase® nucleases in buffers of various NaCl concentrations (0, 250, 500 mM), in pH 7.0, 8.0, 9.0, respectively. The remaining reaction conditions are as follows: temperature 22° C., 50 mM Tris, 20 mM MgCk (5 mM MgCk used for Benzonase®). […] The advantage of PPR over the HL-SAN nuclease, whose characteristics are the most similar, increases in correlation with decreasing pH (7.0-8.0).\n(§2) In order to determine PPR nuclease specific activity serial dilutions of the enzyme are incubated in a reaction buffer containing 20 mM Tris-HCl (pH 8.0), 20 mM MgCh and 100 pg of herring sperm genomic DNA of 300 m ? volume at 37° C. for 30 min. The reaction is stopped by adding 300 m ? 4% solution of perchloric acid to 2% final concentration and sample incubation on ice for 60 min. As a control, 100 pg DNA is incubated without the addition of nuclease. Afterwards, the samples are centrifuged for 10 minutes until separation of the precipitate of non-degraded DNA. The content of free nucleotides and oligonucleotide fragments smaller than 10 bp is determined in supernatant by measuring absorbance at 260 nm wavelength. 1 U nuclease activity is determined as enzyme quantity causing increase of absorbance in the studied sample at 260 nm wavelength of 1.0 within 30 minutes of reaction at 37° C. […]"}, "pUC19 plasmid DNA [3]": {"system": "pUC19 plasmid DNA", "assay": "Effects of potential inhibitors (salts, urea, imidazole) on PPR nucleolytic activity", "procedure": "as §1\n(§3) In order to determine PPR nuclease specific activity serial dilutions of the enzyme are incubated in a reaction buffer containing 20 mM Tris-HCl (pH 8.0), 20 mM MgCh and 100 pg of herring sperm genomic DNA of 300 m ? volume at 37° C. for 30 min. The reaction is stopped by adding 300 m ? 4% solution of perchloric acid to 2% final concentration and sample incubation on ice for 60 min. As a control, 100 pg DNA is incubated without the addition of nuclease. Afterwards, the samples are centrifuged for 10 minutes until separation of the precipitate of non-degraded DNA. The content of free nucleotides and oligonucleotide fragments smaller than 10 bp is determined in supernatant by measuring absorbance at 260 nm wavelength. 1 U nuclease activity is determined as enzyme quantity causing increase of absorbance in the studied sample at 260 nm wavelength of 1.0 within 30 minutes of reaction at 37° C.\nTo determine the scope of enzyme tolerance to popular ion components used in the preparation of recombinant proteins, present in the reaction buffer, a nucleolytic reaction is performed as described in Example 4 in solutions of various amounts of individual potential inhibitors: NaCl, urea, ammonium sulphate, imidazole. The PPR nuclease retains high nucleolytic activity in the presence of increased concentrations of tested substances, as shown in Table 1."}, "[4]": {"system": "herring sperm genomic DNA", "assay": "Nucleolytic activity of PPR, HL-SAN, Benzonase nucleases in DMEM medium", "procedure": "FIG. 7—showing the comparison of values of the PPR, HL-SAN and Benzonase® nucleases' nucleolytic activities in DMEM medium, commonly used for mammalian in vitro cell culture, in which recombinant proteins, virus vectors and other biological therapeutics are produced.\nas §3\nDetermination of the nucleolytic activity of PPR, HL-SAN and Benzonase® nucleases are performed as described in Example 4 at various temperatures: 6° C., 22° C. and 37° C. but instead of a reaction buffer DMEM medium (commonly used in cultures of mammalian cells, e.g. CHO, HEK, for the production of recombinant proteins and virus vectors) is used. […] At 37° C. […] The activity for every enzyme in conditions recommended by the manufacturer was assumed as 100% activity."}, "[5]": {"system": "herring sperm genomic DNA", "assay": "Nucleolytic (specific) activity of PPR nuclease, modified Kunitz's test: effect of pH, temperature and Mg2+", "procedure": "FIG. 2—showing pH influence on PPR nucleolytic activity depending on NaCl salt concentration. Measurement using modificated Kunitz's test, conditions: 20 mM MgCh, temperature of 22° C.\nFIG. 3—showing temperature and high salts (500 mM NaCl+100 mM MgCL) influence on PPR nucleolytic activity. Measurement using modificated Kunitz's test.\nFIG. 4—showing influence of Mg^2, ions on PPR nucleolytic activity in selected pH and temperature conditions. Maximum PPR activity is obtained at 50-150 mM concentration at 37° C. in a pH 8.0 buffer.\nas §3\nIn order to determine optimal pH for enzyme nucleolytic activity reaction is conducted as described in Example 4. The solutions of pH 6.0-10.0 with 1 U enzyme in reaction mixtures containing 0, 250, 500 mM NaCl, respectively.\nThe determination of the optimal temperature for enzyme nucleolytic activity reaction is performed as described in Example 4 at various temperatures from 6° C. to 45° C. with 1 U enzyme in the reaction mixture containing 50 mM Tris, pH 8.0 and variable concentrations of MgCh (5 mM and 100 mM). […] It needs to be highlighted that in these conditions 100% of standard activity may be obtained in refrigerated conditions at 6° C., by applying the relevant salt concentration: NaCl (500 mM) and MgCh (100 mM).\nTo determine the effects of Mg^2+ ion concentration on PPR nucleolytic activity reaction is performed as described in Example 4 in solutions of varied content of Mg^2+ ions; 5 mM to 200 mM with 1 U enzyme in the reaction mixture. […] In all observed ranges of MgCh (5-200 mM) PPR concentrations show high specific activity."}, "[6]": {"system": "herring sperm genomic DNA", "assay": "Nucleolytic activity of PPR, HL-SAN, Benzonase nucleases in PBS and TBS buffers", "conditions": "PBS, TBS and TBS with 500 mM NaCl; 6° C., 22° C. and 37° C.", "procedure": "FIG. 8—showing the comparison of values of the PPR, HL-SAN and Benzonase® nucleases' nucleolytic activities in buffers with similar physiological salt concentration (PBS and TBS) with the addition of 500 mM NaCl, commonly used in the methodology of recombinant protein purification.\nas §2"}},
  "data": [
    {"molecule": "B1", "values": [
      {"measurement": "temperature of irreversible inactivation", "setting": "pUC19 plasmid DNA [1]", "value": 52, "unit": "°C"},
      {"measurement": "nucleolytic activity compared with the other tested nucleases", "setting": "[2]; 250 and 500 mM NaCl, pH 7.0, 8.0 and 9.0, 22° C., 50 mM Tris, 20 mM MgCl2", "value": "highest nucleolytic activity of all tested nucleases"},
      {"measurement": "nucleolytic activity compared with HL-SAN and Benzonase", "setting": "[2]; lower pH (7.0, 8.0) and ambient temperature (22° C.)", "value": "significantly more active"},
      {"measurement": "Non-inhibiting concentration", "setting": "pUC19 plasmid DNA [3]; Ammonium sulphate", "value": "0 to 200", "unit": "mM"},
      {"measurement": "Non-inhibiting concentration", "setting": "pUC19 plasmid DNA [3]; Imidazole", "value": "0 to 400", "unit": "mM"},
      {"measurement": "Non-inhibiting concentration", "setting": "pUC19 plasmid DNA [3]; NaCl/KCl", "value": "0 to 1400", "unit": "mM"},
      {"measurement": "Non-inhibiting concentration", "setting": "pUC19 plasmid DNA [3]; Urea", "value": "0 to 6000", "unit": "mM"},
      {"measurement": "nucleolytic activity relative to Benzonase nuclease", "setting": "[4]; 37° C.", "value": "six times more active"},
      {"measurement": "nucleolytic activity compared with the other tested enzymes", "setting": "[4]; all tested temperatures (6° C., 22° C., 37° C.)", "value": "highest nucleolytic activity of all tested enzymes"},
      {"measurement": "nucleolytic activity relative to HL-SAN and Benzonase", "setting": "[4]; refrigerated conditions (6° C.) and ambient temperature (22° C.)", "value": "approx three times more active"},
      {"measurement": "pH of highest nucleolytic activity", "setting": "[5]; 500 mM NaCl, tested pH 6.0-10.0 at 0, 250, 500 mM NaCl, 20 mM MgCl2, 22° C., 1 U enzyme", "value": 8.0},
      {"measurement": "nucleolytic activity over tested temperature range", "setting": "[5]; 6° C. to 45° C., 50 mM Tris, pH 8.0", "value": "maintains nucleolytic activity in the whole range of the tested temperatures"},
      {"measurement": "MgCl2 concentration range with high specific activity / enzyme active", "setting": "[5]; MgCl2", "value": "5 to 200", "unit": "mM"},
      {"measurement": "temperature of highest nucleolytic activity", "setting": "[5]; NaCl (500 mM) and MgCl2 (100 mM), 50 mM Tris, pH 8.0, tested 6° C. to 45° C.", "value": 37, "unit": "°C"},
      {"measurement": "Mg2+ concentration of highest nucleolytic activity", "setting": "[5]; pH 6.5", "value": 20, "unit": "mM"},
      {"measurement": "optimum Mg2+ concentration range for nucleolytic activity", "setting": "[5]; pH 6.5 buffer, ambient temperature (22° C.)", "value": "20 to 50", "unit": "mM"},
      {"measurement": "Mg2+ concentration of highest nucleolytic activity", "setting": "[5]; pH 8.0", "value": 150, "unit": "mM"},
      {"measurement": "optimum Mg2+ concentration range for nucleolytic activity", "setting": "[5]; pH 8.0 buffer, 37° C.", "value": "50 to 150", "unit": "mM"},
      {"measurement": "nucleolytic activity relative to standard activity", "setting": "[5]; refrigerated conditions at 6° C., NaCl (500 mM) and MgCl2 (100 mM)", "value": "100 % of standard activity"},
      {"measurement": "nucleolytic activity compared with the other tested enzymes", "setting": "[6]", "value": "highest nucleolytic activity of all tested enzymes"}
    ]}
  ]
}
